Measured values reported in patent publication US20170355757A1 (Regeneron, published 2017).
Numbering of substitutions follows the chain as printed. Names and notes keep the numbering of the source.

How the values were obtained:
Human C5 [1] = biological target: T1, Human C5 (human, UniProt P01031 19-1676); assay: SPR, mAb captured by anti-hFc, 25C
T1 construct: The natural protein has a beta and an alpha chain; also called complement factor 5; complement component 5
Experimental: (§1) Equilibrium dissociation constants (KD values) for C5 binding to purified anti-C5 antibodies were determined using a real-time surface plasmon resonance biosensor assay on a Biacore T200 instrument. The Biacore sensor surface was derivatized by amine coupling with a monoclonal mouse anti-human Fc antibody (GE Healthcare, # BR-1008-39) to capture anti-C5 antibodies expressed with human Fc constant regions. Biacore binding studies were conducted in HBST running buffer (0.01M HEPES pH 7.4, 0.15M NaCl, 3 mM EDTA, 0.05% v/v Surfactant P20).
(§2) Human C5 was obtained from a commercial source (EMD). Other C5 reagents were expressed with a C-terminal myc-myc-hexahistidine tag (subsequently referred to as C5-mmh). […] Association of all the C5 reagents to each of the captured monoclonal antibodies was monitored for 3 minutes and their dissociation in HBST running buffer was monitored for 8 minutes. All the binding kinetics experiments were performed at either 25° C. or 37° C. Kinetic association (kₐ) and dissociation (kd) rate constants were determined by fitting the real-time sensorgrams to a 1:1 binding model using Scrubber 2.0c curve fitting software. Binding dissociation equilibrium constants (KD) and dissociative half-lives (t %) were calculated from the kinetic rate constants as: KD (M)=kd/kₐ and t_{1/2} (min)=In2/(60×kd)

monkey C5-mmh = biological target: T2, monkey C5-mmh (monkey, UniProt P01031 19-1676 (human entry), limits assumed); assay: SPR, mAb captured by anti-hFc, 25C
T2 construct: Expressed with a C-terminal myc-myc-hexahistidine tag
T2 chain: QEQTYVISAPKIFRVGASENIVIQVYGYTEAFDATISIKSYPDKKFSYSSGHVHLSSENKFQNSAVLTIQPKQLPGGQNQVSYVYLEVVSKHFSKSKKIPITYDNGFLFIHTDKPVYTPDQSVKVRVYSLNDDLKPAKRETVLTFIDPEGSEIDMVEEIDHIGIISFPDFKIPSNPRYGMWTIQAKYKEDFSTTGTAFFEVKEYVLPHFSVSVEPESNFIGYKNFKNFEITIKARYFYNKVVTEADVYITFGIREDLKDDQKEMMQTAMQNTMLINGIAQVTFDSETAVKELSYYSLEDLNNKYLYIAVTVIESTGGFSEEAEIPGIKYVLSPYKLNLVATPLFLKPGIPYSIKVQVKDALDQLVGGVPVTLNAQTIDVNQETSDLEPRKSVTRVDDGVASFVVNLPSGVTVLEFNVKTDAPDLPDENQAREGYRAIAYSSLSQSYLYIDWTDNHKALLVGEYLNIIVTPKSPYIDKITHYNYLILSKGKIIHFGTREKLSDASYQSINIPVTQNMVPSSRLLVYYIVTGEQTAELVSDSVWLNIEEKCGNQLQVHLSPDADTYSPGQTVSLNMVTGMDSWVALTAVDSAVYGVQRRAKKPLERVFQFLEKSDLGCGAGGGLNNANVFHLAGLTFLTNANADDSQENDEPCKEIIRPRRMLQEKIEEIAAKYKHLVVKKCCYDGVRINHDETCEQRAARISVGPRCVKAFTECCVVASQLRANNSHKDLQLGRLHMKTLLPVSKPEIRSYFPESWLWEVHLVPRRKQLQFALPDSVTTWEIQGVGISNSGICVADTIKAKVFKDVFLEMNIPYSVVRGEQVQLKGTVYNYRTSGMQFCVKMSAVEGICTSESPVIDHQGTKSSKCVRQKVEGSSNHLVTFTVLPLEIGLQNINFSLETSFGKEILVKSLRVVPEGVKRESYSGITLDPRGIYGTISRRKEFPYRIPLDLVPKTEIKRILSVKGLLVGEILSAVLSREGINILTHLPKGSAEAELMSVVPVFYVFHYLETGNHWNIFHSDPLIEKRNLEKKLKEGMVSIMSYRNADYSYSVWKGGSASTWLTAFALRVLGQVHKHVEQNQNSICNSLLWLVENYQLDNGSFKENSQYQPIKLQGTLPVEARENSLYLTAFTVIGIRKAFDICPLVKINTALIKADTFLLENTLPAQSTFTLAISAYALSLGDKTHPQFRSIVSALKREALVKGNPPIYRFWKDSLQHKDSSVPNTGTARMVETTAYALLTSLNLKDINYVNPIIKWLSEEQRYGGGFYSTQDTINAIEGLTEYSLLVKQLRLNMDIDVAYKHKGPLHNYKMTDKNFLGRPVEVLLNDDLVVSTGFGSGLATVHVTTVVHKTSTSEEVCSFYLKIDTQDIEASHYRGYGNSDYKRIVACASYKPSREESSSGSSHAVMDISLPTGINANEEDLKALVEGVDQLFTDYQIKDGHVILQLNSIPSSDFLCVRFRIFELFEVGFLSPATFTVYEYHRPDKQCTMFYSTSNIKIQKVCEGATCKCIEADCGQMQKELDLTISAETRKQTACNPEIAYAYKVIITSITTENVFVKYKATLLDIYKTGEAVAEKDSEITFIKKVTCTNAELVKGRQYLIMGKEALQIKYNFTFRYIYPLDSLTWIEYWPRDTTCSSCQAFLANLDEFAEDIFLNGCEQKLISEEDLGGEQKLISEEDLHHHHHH
Experimental: as §1, §2

Human C5 [2] = biological target: T1, Human C5; assay: SPR, mAb captured by anti-hFc, 37C
Experimental: as §1, §2

B1: H4H12166P2 (antibody, human IgG4, V domains shown)
VH: QVQLQESGPGLVKPSETLSLTCTVSGDSVSSSYWTWIRQPPGKGLEWIGYIYYSGSSNYNPSLKSRATISVDTSKNQFSLKLSSVTAADTAVYYCAREGNVDTTMIFDYWGQGTLVTVSS
VL: AIQMTQSPSSLSASVGDRVTITCRASQGIRNDLGWYQQKPGKAPKLLIYAASSLQSGVPSRFAGRGSGTDFTLTISSLQPEDFATYYCHQDFNYPWTFGQGTKVEIK
notes: human IgG4 Fc with S108P hinge mutation
100 nM Human C5 Bound (RU) (Human C5 [1]): 95 RU | Kd (Human C5 [1]): 0.438 nM | koff (Human C5 [1]): 0.000361 s⁻¹ | kon (Human C5 [1]): 826000 M⁻¹ s⁻¹ | t½ (Human C5 [1]): 32 min | 100 nM monkey C5-mmh Bound (RU) (monkey C5-mmh): 71 RU | Kd (monkey C5-mmh): 10.5 nM | koff (monkey C5-mmh): 0.00316 s⁻¹ | kon (monkey C5-mmh): 300000 M⁻¹ s⁻¹ | t1/2 (monkey C5-mmh): 4 min | 100 nM Human C5 Bound (RU) (Human C5 [2]): 110 RU | Kd (Human C5 [2]): 1.29 nM | koff (Human C5 [2]): 0.00123 s⁻¹ | kon (Human C5 [2]): 950000 M⁻¹ s⁻¹ | t½ (Human C5 [2]): 9 min

B2: H4H12166P5 (antibody, human IgG4, V domains shown)
VH: B1 VH with F107H
VL: B1 VL with H89L
notes: as for B1
100 nM Human C5 Bound (RU) (Human C5 [1]): 110 RU | Kd (Human C5 [1]): 1.15 nM | koff (Human C5 [1]): 0.000328 s⁻¹ | kon (Human C5 [1]): 285000 M⁻¹ s⁻¹ | t½ (Human C5 [1]): 35 min | 100 nM monkey C5-mmh Bound (RU) (monkey C5-mmh): 56 RU | Kd (monkey C5-mmh): 24 nM | koff (monkey C5-mmh): 0.00346 s⁻¹ | kon (monkey C5-mmh): 144000 M⁻¹ s⁻¹ | t1/2 (monkey C5-mmh): 3 min | 100 nM Human C5 Bound (RU) (Human C5 [2]): 129 RU | Kd (Human C5 [2]): 2.77 nM | koff (Human C5 [2]): 0.00122 s⁻¹ | kon (Human C5 [2]): 440000 M⁻¹ s⁻¹ | t½ (Human C5 [2]): 9 min

B3: H4H12166P7 (antibody, human IgG4, V domains shown)
VH: B1 VH with G99H
VL: B1 VL with H89L, T97H
notes: as for B1
100 nM Human C5 Bound (RU) (Human C5 [1]): 92 RU | Kd (Human C5 [1]): 3.67 nM | koff (Human C5 [1]): 0.00101 s⁻¹ | kon (Human C5 [1]): 274000 M⁻¹ s⁻¹ | t½ (Human C5 [1]): 11 min | 100 nM monkey C5-mmh Bound (RU) (monkey C5-mmh): 36 RU | Kd (monkey C5-mmh): 46.5 nM | koff (monkey C5-mmh): 0.00633 s⁻¹ | kon (monkey C5-mmh): 136000 M⁻¹ s⁻¹ | t1/2 (monkey C5-mmh): 2 min | 100 nM Human C5 Bound (RU) (Human C5 [2]): 105 RU | Kd (Human C5 [2]): 7.39 nM | koff (Human C5 [2]): 0.00258 s⁻¹ | kon (Human C5 [2]): 349000 M⁻¹ s⁻¹ | t½ (Human C5 [2]): 4 min

B4: H4H12166P4 (antibody, human IgG4, V domains shown)
VH: B1 VH
VL: B1 VL with H89L, T97H
notes: as for B1
100 nM Human C5 Bound (RU) (Human C5 [1]): 92 RU | Kd (Human C5 [1]): 0.395 nM | koff (Human C5 [1]): 0.000176 s⁻¹ | kon (Human C5 [1]): 446000 M⁻¹ s⁻¹ | t½ (Human C5 [1]): 66 min | 100 nM monkey C5-mmh Bound (RU) (monkey C5-mmh): 69 RU | Kd (monkey C5-mmh): 8.5 nM | koff (monkey C5-mmh): 0.00178 s⁻¹ | kon (monkey C5-mmh): 210000 M⁻¹ s⁻¹ | t1/2 (monkey C5-mmh): 6 min | 100 nM Human C5 Bound (RU) (Human C5 [2]): 108 RU | Kd (Human C5 [2]): 0.93 nM | koff (Human C5 [2]): 0.000469 s⁻¹ | kon (Human C5 [2]): 505000 M⁻¹ s⁻¹ | t½ (Human C5 [2]): 25 min
